# Assay results as given in article PMC11633486, “The Intestinal Transporter SLC30A1 Plays a Critical Role in Regulating Systemic Zinc Homeostasis” (Advanced Science, 2024).
# B1: full-length human SLC30A1 protein (natural protein, UniProt Q9Y6M5 1-507, looked up)
# chain: MGCWGRNRGRLLCMLALTFMFMVLEVVVSRVTSSLAMLSDSFHMLSDVLALVVALVAERFARRTHATQKNTFGWIRAEVMGALVNAIFLTGLCFAILLEAIERFIEPHEMQQPLVVLGVGVAGLLVNVLGLCLFHHHSGFSQDSGHGHSHGGHGHGHGLPKGPRVKSTRPGSSDINVAPGEQGPDQEETNTLVANTSNSNGLKLDPADPENPRSGDTVEVQVNGNLVREPDHMELEEDRAGQLNMRGVFLHVLGDALGSVIVVVNALVFYFSWKGCSEGDFCVNPCFPDPCKAFVEIINSTHASVYEAGPCWVLYLDPTLCVVMVCILLYTTYPLLKESALILLQTVPKQIDIRNLIKELRNVEGVEEVHELHVWQLAGSRIIATAHIKCEDPTSYMEVAKTIKDVFHNHGIHATTIQPEFASVGSKSSVVPCELACRTQCALKQCCGTLPQAPSGKDAEKTPAVSISCLELSNNLEKKPRRTKAENIPAVVIEIKNMPNKQPESSL
# notes: SLC30A1 (zinc transporter 1), human, full-length cDNA with codon optimization; Homodimer in the cryo-EM structure; the C291 residues of the two protomers form a disulfide bond; also called WT SLC30A1; wild-type SLC30A1; source: HEK293F, transfected (pEZT vector), purified (Strep-Tactin beads, Superose 6 gel filtration) in LMNG/CHS
# Target: the molecule itself
# Test: cryo-EM structure; purified wild-type SLC30A1 at 5 mg/mL in 25 mM Tris pH 8.0, 150 mM NaCl, 0.002% LMNG, 0.0004% CHS; C2 symmetry imposed; homodimer
protein,measurement,value
B1,stoichiometry N,2
